Laboratory results: patent publication US6602850B1, “Method of treating asthma using soluble IL-9 receptor variants” (Genaera Corporation, priority 1996, dated 2003)

What was measured:
Jak-Stat pathway = assay: Tyrosine phosphorylation of Jak, Stat and Irs family members in TS1 cells expressing human IL-9 receptor variants, after IL-9 stimulation; assay type: cell-based; details: TS1 cells expressing the receptor form, starved 6 hours, treated 5 minutes with human or murine IL-9 (100 ng/ml), FIG. 15
Method: (§1) To determine growth response of TS1 cells expressing various forms of human IL-9 receptor, cells were washed with PBS and resuspended in D-MEM, 10% fetal bovine serum. 10^3 cells per well were seeded in triplicate in 96-well microplates and, where appropriate, recombinant human IL-9 or murine IL-9 (R&D Systems, Minneapolis, Minn.) was added at a final concentration of 5 ng/ml. Cell proliferation was evaluated after 7 days using an acid phosphatase assay. Briefly, 50 μl of a buffer containing 0.1 M sodium acetate (pH 5.5), 0.1% Triton X-100 and 10 mM p-nitrophenyl phosphate (Sigma 104 phosphatase substrate) was added per well. The plate was incubated for 1-½ hours at room temperature, the reaction stopped with 10 μl/well of 1N sodium hydroxide and the absorbance was read on a Dynatech Model MR600 at 410 nm. To analyze tyrosine-phosphorylation of proteins of the signal transduction cascade upon cytokine stimulation, TS1 cells expressing various forms of human IL-9 receptor were washed with PBS, resuspended in D-MEM, 0.5% bovine serum albumin, and incubated for 6 hours at 37° C. Successively, 20×10^6 cells were treated for 5 minutes with either human IL-9 or murine IL-9 (100 ng/ml) and immediately washed in cold PBS. Cells were lysed in RIPA buffer as described in Example 11.
Typically, 20-50×10^6cells were lysed in 1 ml of RIPA buffer (PBS containing 1% NP40, 0.5% sodium deoxycholate, 0.1% SDS, 1 mM PMSF, 50 mM sodium fluoride, […] sodium orthovanadate, and 1× “Complete” protease inhibitors mixture, Cat. No. 1697498 Boehringer Mannheim) and incubated for 45 minutes on ice. Lysates were centrifuged for 20 minutes in an Eppendorf microcentrifuge and the supernatant recovered and transferred to a fresh tube. For immunoprecipitations, 1-5 μg of the antibody were added to the lysate and incubated overnight at 4° C. […] Proteins were transferred onto Immobilion-P membrane (Millipore) and detected using a horseradish peroxidase-conjugated secondary antibody followed by a chemiluminescence detection assay (Pierce). […]

TS1 cells = assay: Proliferation of TS1 cells expressing different forms of human IL-9 receptor (acid phosphatase assay); assay type: cell-based, murine; details: TS1 cells expressing the receptor form, IL-9 5 ng/ml, 7 days, FIG. 16
Method: as §1

[1] = listed as splice variant of the IL-9R

Molecule | activation (tyrosine phosphorylation) of proteins of the Jak-Stat pathway (Jak-Stat pathway) | activation (tyrosine phosphorylation) of proteins of the Jak-Stat pathway (Jak-Stat pathway; [1]) | cellular proliferation upon IL-9 stimulation (TS1 cells) | cellular proliferation upon IL-9 stimulation (TS1 cells; [1])
ΔQ173 variant: splice variant of the IL-9R wherein the glutamine residue at position 173 of the precursor protein has been deleted (SEQ ID NO 3) (protein) SVTGEGQGPRSRTFTCLTNNILRIDCHWSAPELGQGSSPWLLFTSNQAPGGTHKCILRGSECTVVLPPEAVLVPSDNFTITFHHCMSGREQVSLVDPEYLPRRHVKLDPPSDLQSNISSGHCILTWSISPALEPMTTLLSYELAFKKQEEAWEAQHRDHIVGVTWLILEAFELDPGFIHEARLRVQMATLEDDVVEEERYTGQWSEWSQPVCFQAPQRQGPLIPPWGWPGNTLVAVSIFLLLTGPTYLLFKLSPRVKRIFYQNVPSPAMFFQPLYSVHNGNFQTWMGAHRAGVLLSQDCAGTPQGALEPCVQEATALLTCGPARPWKSVALEEEQEGPGTRLPGNLSSEDVLPAGCTEWRVQTLAYLPQEDWAPTSLTRPAPPDSEGSRSSSSSSSSSNNNNYCALGCYGGWHLSALPGNTQSSGPIPALACGLSCDHQGLETQQGVAWVLAGHCQRPGLHEDLQGMLLPSVLSKARSWTF | could not activate any proteins in the Jak-Stat pathway | not able to transcribe a signal through the Jak-Stat pathway | could not support cellular proliferation upon IL-9 stimulation | unable to induce cellular proliferation upon stimulation with IL-9
IL-9R: wild type human IL-9 receptor, Arg allele at codon 344 with 8 Ser/4 Asn repeats (SEQ ID NO 1) (protein) SVTGEGQGPRSRTFTCLTNNILRIDCHWSAPELGQGSSPWLLFTSNQAPGGTHKCILRGSECTVVLPPEAVLVPSDNFTITFHHCMSGREQVSLVDPEYLPRRHVKLDPPSDLQSNISSGHCILTWSISPALEPMTTLLSYELAFKKQEEAWEQAQHRDHIVGVTWLILEAFELDPGFIHEARLRVQMATLEDDVVEEERYTGQWSEWSQPVCFQAPQRQGPLIPPWGWPGNTLVAVSIFLLLTGPTYLLFKLSPRVKRIFYQNVPSPAMFFQPLYSVHNGNFQTWMGAHRAGVLLSQDCAGTPQGALEPCVQEATALLTCGPARPWKSVALEEEQEGPGTRLPGNLSSEDVLPAGCTEWRVQTLAYLPQEDWAPTSLTRPAPPDSEGSRSSSSSSSSSNNNNYCALGCYGGWHLSALPGNTQSSGPIPALACGLSCDHQGLETQQGVAWVLAGHCQRPGLHEDLQGMLLPSVLSKARSWTF | all of the proteins of the pathway including Jak3 and Irs1 were phophoralated |  |  | 
